Earlier results, collected in paper PMC8989918.

Legend:
[1] = target: PTPN12 (PTP-PEST) (Homo sapiens) (UniProt Q05209)
[2] = target: PTPN22 SH3-binding peptide (Homo sapiens) (UniProt Q9Y2R2)
Chain of PTPN22 SH3-binding peptide (Homo sapiens) (Q9Y2R2 whole entry): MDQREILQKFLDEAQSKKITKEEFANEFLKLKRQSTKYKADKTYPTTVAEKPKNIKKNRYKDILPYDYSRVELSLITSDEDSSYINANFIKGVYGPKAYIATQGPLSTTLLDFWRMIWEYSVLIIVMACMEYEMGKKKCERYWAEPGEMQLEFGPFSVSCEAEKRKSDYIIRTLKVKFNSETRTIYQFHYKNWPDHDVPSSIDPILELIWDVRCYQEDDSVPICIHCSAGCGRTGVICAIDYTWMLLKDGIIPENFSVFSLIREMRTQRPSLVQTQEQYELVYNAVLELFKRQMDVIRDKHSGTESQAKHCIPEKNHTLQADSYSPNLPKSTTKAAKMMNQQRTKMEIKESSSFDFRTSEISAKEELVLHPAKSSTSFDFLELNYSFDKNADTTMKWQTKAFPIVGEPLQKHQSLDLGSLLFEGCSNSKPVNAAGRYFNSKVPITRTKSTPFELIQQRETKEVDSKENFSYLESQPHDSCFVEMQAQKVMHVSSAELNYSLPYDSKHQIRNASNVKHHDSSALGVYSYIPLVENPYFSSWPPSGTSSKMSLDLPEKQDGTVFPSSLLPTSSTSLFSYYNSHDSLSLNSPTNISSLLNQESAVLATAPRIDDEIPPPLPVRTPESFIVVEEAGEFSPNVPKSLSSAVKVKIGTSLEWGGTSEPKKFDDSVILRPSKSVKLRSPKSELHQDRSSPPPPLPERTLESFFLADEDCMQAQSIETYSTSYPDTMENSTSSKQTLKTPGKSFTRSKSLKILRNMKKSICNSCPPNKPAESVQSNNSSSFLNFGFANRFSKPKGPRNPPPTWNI

Chain of Csk SH3 (P41240 6-73): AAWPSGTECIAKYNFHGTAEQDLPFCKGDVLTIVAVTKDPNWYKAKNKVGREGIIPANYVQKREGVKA
Chain of PTPN12 (PTP-PEST) (Homo sapiens) (Q05209 whole entry): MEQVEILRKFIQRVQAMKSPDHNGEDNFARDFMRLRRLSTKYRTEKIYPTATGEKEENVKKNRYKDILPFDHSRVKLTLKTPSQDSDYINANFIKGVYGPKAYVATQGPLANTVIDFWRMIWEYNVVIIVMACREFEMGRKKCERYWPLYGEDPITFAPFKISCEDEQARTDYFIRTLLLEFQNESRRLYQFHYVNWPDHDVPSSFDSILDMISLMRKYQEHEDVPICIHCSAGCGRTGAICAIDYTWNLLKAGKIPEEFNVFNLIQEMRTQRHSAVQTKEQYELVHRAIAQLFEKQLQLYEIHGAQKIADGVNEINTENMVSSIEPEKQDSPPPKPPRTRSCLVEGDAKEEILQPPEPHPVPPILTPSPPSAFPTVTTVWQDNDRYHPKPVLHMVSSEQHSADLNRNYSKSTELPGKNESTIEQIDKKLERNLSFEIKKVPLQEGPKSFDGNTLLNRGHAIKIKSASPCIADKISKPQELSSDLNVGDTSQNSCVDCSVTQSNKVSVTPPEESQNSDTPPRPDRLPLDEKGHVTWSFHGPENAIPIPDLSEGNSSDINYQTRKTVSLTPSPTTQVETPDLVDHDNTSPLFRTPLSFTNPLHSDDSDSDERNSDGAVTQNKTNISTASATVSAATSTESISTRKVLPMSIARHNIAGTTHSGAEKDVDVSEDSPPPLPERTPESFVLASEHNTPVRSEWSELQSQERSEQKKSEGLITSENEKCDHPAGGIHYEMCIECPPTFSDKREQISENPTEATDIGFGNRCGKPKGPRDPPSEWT

Substance: Csk SH3 (from UniProt P41240)
- Kd [1]: 8 µM
- Kd [2]: 0.8 µM
